This passage reports protein stability index results from the supplement of paper PMC10567573.

± gives the standard deviation.

This data set in a line: protein stability index of a GFP-peptide fusion (GPS, HEK-293T) (PSI 1-6); higher = more stable.
[1] abbreviates: treatment: DMSO, c terminus: a fixed tail appended.
Setting [2] is: treatment: MLN4924 1 uM, 8 h, c terminus: a fixed tail appended.
Where [3] appears, read: treatment: DMSO, c terminus: native.
Where [4] appears, read: treatment: MLN4924 1 uM, 8 h, c terminus: native.
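Note: 24-mer peptide tiles fused after GFP, lentivirally expressed, FACS-sorted into six equal bins by GFP/DsRed ratio, decoded by Illumina sequencing, PSI is the read-weighted mean bin number.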

Regarding IPGFKFDNSLINQIENLNIQVEDI [LOXL2], the protein stability index amounted to 3.51 ± 0.18 under setting [1] and 3.37 ± 0.38 under setting [2].

For the sequence ERVEALGQFVMKTRRTLKGHGNKV [GNB5], the protein stability index under setting [1] is 3.09 ± 0.7 and the protein stability index under setting [2] was found to be 3.52 ± 0.14.

In the case of DSYESYGNSRSAPPTRGPPPSYGG [RBMX], the protein stability index runs as follows: under setting [1], 4.27 ± 0.35; under setting [2], 4.33 ± 0.4.

As to CPLKNPTFLDYVRPRSWTCRYVF [SOAT1], the protein stability index is, setting by setting: under setting [3], 3.22 ± 0.47; under setting [4], 3.06 ± 0.42.

Take TCVAVGSPMPYVKWMLGAEDLTPE [PTPRD]: the protein stability index runs as follows: under setting [1], 2.97 ± 0.33; under setting [2], 3.14 ± 0.38.

Take HVGELIIWDALDWTMQAYERNFWD [WDR41]: the protein stability index runs as follows: under setting [1], 2.33 ± 0.26; under setting [2], 2.25 ± 0.26.

Turning to KDNEFTSKPWHWPINYQGLRFSGV [POMT2], the protein stability index runs as follows: under setting [1], 2.23 ± 0.23; under setting [2], 2.42 ± 0.22.

Sequence ALVRTRMQAQASIEGAPEVTMSSL [SLC25A25] returned a protein stability index under setting [1] of 3.6 ± 0.34 and a protein stability index under setting [2] of 3.59 ± 0.33.

Regarding SAGGHGGLLNDTSAPHLENSGHTI [KCNA4], the protein stability index came out at 4.21 ± 0.46 under setting [1] and 4.48 ± 0.2 under setting [2].

Turning to FSRVVHLYRNGKDQDGDQAPEYRG [MOG], the protein stability index by setting is: under setting [1], 3.77 ± 0.21; under setting [2], 3.88 ± 0.34.

RGLGSQASTVTEIVKQQDPLVYKA [ACSBG2] displayed a protein stability index under setting [1] of 4.32 ± 0.041 and a protein stability index under setting [2] of 4.31 ± 0.52.

In turn, SSSDLVMRARDSVYHIECFRCSVC [ISL2] gave a protein stability index under setting [1] of 2.5 ± 0.33 and a protein stability index under setting [2] of 2.72 ± 0.51.

On to GARSKGQCPEPPIVVHCSAGIGRT [PTPN9], for which the protein stability index worked out at 3.46 ± 0.32 under setting [1] and 3.77 ± 0.46 under setting [2].

With VIFLLLFAPFIVYYFIMACDQYSC [DHCR7], the protein stability index under setting [1] came to 2.41 ± 0.19 and the protein stability index under setting [2] is 2.39 ± 0.33.

For the sequence PNNKEIPSHHPTDPVELRRLNFQT [PTPRD], the protein stability index under setting [1] is 4.15 ± 0.18 and the protein stability index under setting [2] is 4.35 ± 0.081.

The sequence NITINIVDDHTPWVKGSVPPPLDQ [CLPTM1] returned a protein stability index under setting [1] of 2.83 ± 0.28 and a protein stability index under setting [2] of 2.77 ± 0.34.

Regarding LENREEPWVKELQDSKEMKQLLDS [ZNF449], the protein stability index reads like this: under setting [1], 5.49 ± 0.18; under setting [2], 5.36 ± 0.23.

Take MCFGPKKVKPAEAETAGAIMAFFL [SLC29A1]: the protein stability index was 2.42 ± 0.45 under setting [1] and 2.13 ± 0.21 under setting [2].

Regarding QQNIPSTLLQDHENQRLFEMLGRK [WAS], the protein stability index under setting [1] came out at 4.32 ± 0.17 and the protein stability index under setting [2] amounted to 4.25 ± 0.24.

Sequence QGASWELQSLRPHDEDIKTTNVKS [ZNF396] yielded a protein stability index under setting [1] of 5.14 ± 0.097 and a protein stability index under setting [2] of 5.19 ± 0.21.

DRECKLPPPSAPASEYCPGKLSWG [WDR88]: the protein stability index amounted to 3.79 ± 0.13 under setting [1] and 3.96 ± 0.36 under setting [2].

Consider LKYIGMAKREINKLLKQKEKKNE [ARL6IP1], for which the protein stability index was 3.7 ± 0.17 under setting [3] and 3.83 ± 0.31 under setting [4].

Take EMSKDALPEKACQLDSRYWRITNA [FBXO3]: the protein stability index was found to be 3.55 ± 0.24 under setting [1] and 3.5 ± 0.16 under setting [2].

In the case of ILDLSCNKLTTLPSDFCGLTHLVK [LRRC59], the protein stability index reads like this: under setting [1], 2.02 ± 0.38; under setting [2], 2.09 ± 0.022.

Turning to FRTKFETEQALRLSVEADINGLRR [KRT17], the protein stability index reads like this: under setting [1], 3.37 ± 0.14; under setting [2], 3.38 ± 0.32.

Consider SAAIHISETLEQKPHFESSTVKTE [EPB41L3], for which the protein stability index reads like this: under setting [1], 4.92 ± 0.66; under setting [2], 5.06 ± 0.52.

Regarding RHCKKYWLISEEEKTQKNQCWKSL [FBXO3], the protein stability index by setting is: under setting [1], 2.5 ± 0.35; under setting [2], 2.96 ± 0.4.

For LYKALGAQDLTEAEGWHFFCFQGE [SAT2], the protein stability index runs as follows: under setting [1], 2.5 ± 0.27; under setting [2], 2.29 ± 0.43.

With LQHMKAVQADQERERQRRLEVERE [LRRC59], the protein stability index was 5.24 ± 0.33 under setting [1] and 5.09 ± 0.27 under setting [2].

AAYSSILSSLGENPQRQGLLKTPW [GCH1]: the protein stability index came to 2.54 ± 0.22 under setting [1] and 2.55 ± 0.29 under setting [2].

On to QFYRNLGKSGLRVSCLGLGTWVTF [KCNAB2], for which the protein stability index by setting is: under setting [1], 2.24 ± 0.86; under setting [2], 2.2 ± 0.32.

For LDMNFSLENREEPWVKELQDSKEM [ZNF449], the protein stability index reads like this: under setting [1], 5.31 ± 0.18; under setting [2], 5.35 ± 0.32.

For the sequence GLDSISHDSANCELPLLTPCSKAV [ETS2], the protein stability index was 4.47 ± 0.076 under setting [1] and 4.55 ± 0.28 under setting [2].

In turn, NFSIVPYEKKFDTFIPLEPLPQIP [SPATS1] had a protein stability index under setting [1] of 3.04 ± 0.33 and a protein stability index under setting [2] of 2.97 ± 0.34.

Take REIQPTAILSLDQIKAIRGSNEYT [SPRY1]: the protein stability index by setting is: under setting [1], 3.99 ± 0.29; under setting [2], 4.02 ± 0.14.

Sequence ERWLQKQGKYSGVGLLDHMVSIYL [RNF180] had a protein stability index under setting [1] of 2.3 ± 0.39 and a protein stability index under setting [2] of 2.59 ± 0.28.

SWWADLRALARNLIFGLITCLTGV [SPNS1] had a protein stability index under setting [1] of 3.88 ± 0.43 and a protein stability index under setting [2] of 3.92 ± 0.24.

As to LLGGDLRYHLQQNVHFKEETVKLF [STK32A], the protein stability index under setting [1] turned out to be 2.36 ± 0.41 and the protein stability index under setting [2] worked out at 2.6 ± 0.27.

Regarding VHTEFTLRNFNSAKDMKKAVAHMK [MATN2], the protein stability index was found to be 3.95 ± 0.17 under setting [1] and 4.03 ± 0.22 under setting [2].

Turning to LKQRTVIEMFKSITHSTVGSKGEK [EHMT1], the protein stability index is, setting by setting: under setting [1], 3.16 ± 0.18; under setting [2], 3.17 ± 0.33.

As for HWDLAELLPNQSHGNQSAGEDQAF [SLC22A15], the protein stability index is, setting by setting: under setting [1], 4.85 ± 0.28; under setting [2], 4.8 ± 0.28.

As to ESKLLGSNSSRMYFTQTLLPGLAG [MLH1], the protein stability index by setting is: under setting [1], 3.12 ± 0.24; under setting [2], 3.12 ± 0.5.

TEPEDDRGPVVPKHSTFGQSLTQR [GNAS]: the protein stability index by setting is: under setting [1], 4.89 ± 0.31; under setting [2], 4.85 ± 0.2.

Turning to RDEVRFFKGNKYWAVQGQNVLHGY [MMP1], the protein stability index by setting is: under setting [1], 2.35 ± 0.22; under setting [2], 2.51 ± 0.14.

Regarding MLTLPFDESVVMPESQMCRKFSRE [NEUROD6], the protein stability index is 3.65 ± 0.15 under setting [1] and 3.77 ± 0.15 under setting [2].

For the sequence NRKSILSRHLNSQVKKTTTRWCHI [PHTF1], the protein stability index by setting is: under setting [1], 2.57 ± 0.55; under setting [2], 2.57 ± 0.39.

As for QYNRSSNSNGGNLNSPPGPHSAKT [CDC14A], the protein stability index by setting is: under setting [1], 4.42 ± 0.19; under setting [2], 4.33 ± 0.29.

For the sequence RDAKAAMAGRLMIRKLVAEKLNIP [AASDHPPT], the protein stability index stood at 2.62 ± 0.28 under setting [1] and 2.79 ± 0.36 under setting [2].

Consider AENLDVKINENVAAGMRFPLPEAI [PCDHGA10], for which the protein stability index is 4.29 ± 0.2 under setting [1] and 4.28 ± 0.15 under setting [2].

Regarding PWGVQGGQESEVPYKREEEALEER [PKD2L1], the protein stability index was found to be 5.16 ± 0.37 under setting [1] and 5.56 ± 0.19 under setting [2].

On to VISCEFAHNSNWYITFQSDTDAQQ [LARP4], for which the protein stability index under setting [1] turned out to be 2.47 ± 0.23 and the protein stability index under setting [2] is 2.56 ± 0.19.

LHHKRLAKECMLQEENKSLREENK [CBY2]: the protein stability index under setting [1] came out at 4.87 ± 0.39 and the protein stability index under setting [2] was found to be 4.89 ± 0.21.

For LSPVLESPRDLQFSEIRETSAKVN [TNXB], the protein stability index under setting [1] came out at 4.9 ± 0.12 and the protein stability index under setting [2] turned out to be 5.02 ± 0.34.

For the sequence EVDPVRRAVRDRNLLRDDRVLQNL [CCND2], the protein stability index was 4.1 ± 0.2 under setting [1] and 4.01 ± 0.27 under setting [2].

In the case of SRYRSLRPNRQLGSMVEIAKQLQA [TRIM39], the protein stability index by setting is: under setting [1], 2.74 ± 0.28; under setting [2], 2.92 ± 0.34.

Turning to HYCNSSTDRRVLLMFLDICSELNK [SPACA9], the protein stability index reads like this: under setting [1], 2.18 ± 0.35; under setting [2], 2.21 ± 0.29.

In the case of NAPNSLGVSALCAICGDRATGKHY [HNF4A], the protein stability index came to 2.84 ± 0.12 under setting [1] and 3.2 ± 0.15 under setting [2].

QLEQPEKMPVLKAEASHYNSDLNN [RHOBTB3] displayed a protein stability index under setting [1] of 4.83 ± 0.19 and a protein stability index under setting [2] of 4.94 ± 0.15.

For the sequence KIMEAESQKATRECEKSALTPGFS [FAN1], the protein stability index runs as follows: under setting [1], 4.86 ± 0.29; under setting [2], 4.84 ± 0.14.

DREGYTSFWNDCISSGLRGCMLIE [GOLPH3]: the protein stability index was determined as 2.08 ± 0.28 under setting [1] and 2.31 ± 0.19 under setting [2].

As to ALSCHEQEMVVSSLVIGALLASLT [SLC2A12], the protein stability index is, setting by setting: under setting [1], 3 ± 0.64; under setting [2], 3.09 ± 0.29.

On to WTALHFAAQNGDESSTRLLLEKNA [RIPK4], for which the protein stability index is, setting by setting: under setting [1], 3.4 ± 0.08; under setting [2], 3.28 ± 0.33.

For the sequence VLSSTTLLPRQPLPLGIKVYEDET [PALM], the protein stability index reads like this: under setting [1], 4.23 ± 0.21; under setting [2], 4.18 ± 0.16.

On to EDTHVQIGQVHEEFKQNIENVSVE [FCHO1], for which the protein stability index reads like this: under setting [1], 5.48 ± 0.27; under setting [2], 5.49 ± 0.21.

With SDRPFKCNQCGKCFIQSSHLIRHQ [ZNF8], the protein stability index was 3.31 ± 0.17 under setting [1] and 3.76 ± 0.61 under setting [2].

For the sequence ATSESTTVEPGKLDVGATEGQDLQ [DRICH1], the protein stability index runs as follows: under setting [1], 5.46 ± 0.27; under setting [2], 5.5 ± 0.22.

Turning to DPGQVGLINSNVSMVDLTSVTLED [FAN1], the protein stability index is, setting by setting: under setting [1], 5.05 ± 0.092; under setting [2], 4.79 ± 0.2.

Turning to RLWHTACASDEGEVIVFGGCANNL [KLHDC2], the protein stability index amounted to 2.75 ± 0.34 under setting [1] and 2.89 ± 0.44 under setting [2].

For SSMLTGILWDTLLRLCAWGLASWP [POMT2], the protein stability index by setting is: under setting [1], 3.12 ± 0.62; under setting [2], 2.66 ± 0.61.

On to EATNGREGLLRFSSWPFSIQDVVQ [AUP1], for which the protein stability index under setting [1] amounted to 2.93 ± 0.21 and the protein stability index under setting [2] is 3.09 ± 0.37.

Take KRSQSMKSYPSSELRNMCDEHIAS [CLCN6]: the protein stability index runs as follows: under setting [1], 4.56 ± 0.34; under setting [2], 4.734 ± 0.012.

In the case of PAWYVAACRANVKSGAIMSALSDT [PPFIA4], the protein stability index under setting [1] was determined as 2.58 ± 0.26 and the protein stability index under setting [2] is 2.25 ± 0.39.
